The values that follow come from PMC4155686, “Oleoyl Coenzyme A Regulates Interaction of Transcriptional Regulator RaaS (Rv1219c) with DNA in Mycobacteria*” (The Journal of Biological Chemistry, 2014).

Changes are numbered by the printed parent chain. In names and notes the source's numbering stands.

As usually defined, the stoichiometry N is a count of units in the complex or per binding partner. One may read the Kd as the constant that tells how readily two partners part at equilibrium.

Series [1] concerns the molecule itself. The series can be described thus: small-angle X-ray scattering; protein alone in solution at 1 and 3 mg/ml, data extrapolated to infinite dilution; apparent molecular mass from I(0).
The target of series [2] is T1, RaaS R140A (Mycobacterium tuberculosis, UniProt O86312 1-212, R140A).
T1 sequence: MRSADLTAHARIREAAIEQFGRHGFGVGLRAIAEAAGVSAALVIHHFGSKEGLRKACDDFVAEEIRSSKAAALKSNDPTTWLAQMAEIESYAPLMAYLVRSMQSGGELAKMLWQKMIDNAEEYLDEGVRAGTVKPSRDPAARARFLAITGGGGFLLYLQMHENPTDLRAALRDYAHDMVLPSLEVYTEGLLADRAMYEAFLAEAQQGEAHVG
The series can be described thus: fluorescence anisotropy; 4 nM DNA. The conditions noted are these: protein: recombinant; chain copies: 2. Background: In fluorescence polarisation assays a small probe gives low polarisation when free and higher when bound to something large.

In series [3] the target is T2, RaaS R144A (Mycobacterium tuberculosis, UniProt O86312 1-212, R144A).
T2 sequence: T1 sequence with A140R, R144A
The series can be described thus: fluorescence anisotropy; 4 nM DNA; FA: 50 mM Tris-HCl pH 8.5, 150 mM NaCl, temperature not stated; EMSA: 50 mM Tris-HCl pH 8.0, 1 mM EDTA, 50 mM NaCl, 4% glycerol, sheared salmon sperm DNA (printed as 1 g per reaction), 10 min, room temperature. The conditions noted are these: protein: recombinant; chain copies: 2.

For series [4], the target named is T3, RaaS Y174A (Mycobacterium tuberculosis, UniProt O86312 1-212, Y174A).
T3 sequence: T1 sequence with A140R, Y174A
Described as above. The conditions noted are these: protein: recombinant; chain copies: 2.

B1: RaaS (Rv1219c) R144A mutant (natural protein)
chain: T1 sequence with A140R, R144A
For the molecule B1, the “stoichiometry N” value in series [1] is 2.

B2: RaaS (Rv1219c) Y174A mutant (natural protein)
chain: T1 sequence with A140R, Y174A
Consider B2, for which, in series [1], the “stoichiometry N” value was 2.

B3: Pr14F/Pr14R (ATTO 647N) (dsDNA)
DNA 1: GGGATGAACGTACGTTTAATATCCTGAACATGCGTTCAG
DNA 2: GGGCTGAACGCATGTTCAGGATATTAAACGTACGTTCAT
In the case of B3, the results for the dissociation constant (Kd) in series [2], in series [3] and in series [4] were 654 ± 300 nM, 129 ± 70 nM and 611 ± 120 nM, respectively.
